Publication PMC9293896
Substitutions are numbered along the chain they refer to. pKd: −log10 of the molar value. Blank lines part the entries; values can stand above or below the substance they belong to.

Tests used:
[1] = biological target: OTR A318G, N-terminal SNAP-tag (human) (UniProt P30559)
[2] = biological target: OTR F175A, N-terminal SNAP-tag (human) (UniProt P30559)
[3] = biological target: OTR F291A, N-terminal SNAP-tag (human) (UniProt P30559)
[4] = biological target: OTR F292A, N-terminal SNAP-tag (human) (UniProt P30559)
[5] = biological target: OTR I201A, N-terminal SNAP-tag (human) (UniProt P30559)
[6] = biological target: OTR K116A, N-terminal SNAP-tag (human) (UniProt P30559)
[7] = biological target: OTR L316A, N-terminal SNAP-tag (human) (UniProt P30559)
[8] = biological target: OTR Q119A, N-terminal SNAP-tag (human) (UniProt P30559)
[9] = biological target: OTR Q171A, N-terminal SNAP-tag (human) (UniProt P30559)
[10] = biological target: OTR Q171N, N-terminal SNAP-tag (human) (UniProt P30559)
[11] = biological target: OTR Q295A, N-terminal SNAP-tag (human) (UniProt P30559)
[12] = biological target: OTR Q92A, N-terminal SNAP-tag (human) (UniProt P30559)
[13] = biological target: OTR Q96A, N-terminal SNAP-tag (human) (UniProt P30559)
[14] = biological target: OTR W188A, N-terminal SNAP-tag (human) (UniProt P30559)
[15] = biological target: OTR-D153Y, N-terminal SNAP-tag (human) (UniProt P30559)
[16] = biological target: T1, truncated V1AR (residues 1-378 with C-terminal mutation T378K), N-terminal SNAP-tag (human) (UniProt P37288)
T1 sequence: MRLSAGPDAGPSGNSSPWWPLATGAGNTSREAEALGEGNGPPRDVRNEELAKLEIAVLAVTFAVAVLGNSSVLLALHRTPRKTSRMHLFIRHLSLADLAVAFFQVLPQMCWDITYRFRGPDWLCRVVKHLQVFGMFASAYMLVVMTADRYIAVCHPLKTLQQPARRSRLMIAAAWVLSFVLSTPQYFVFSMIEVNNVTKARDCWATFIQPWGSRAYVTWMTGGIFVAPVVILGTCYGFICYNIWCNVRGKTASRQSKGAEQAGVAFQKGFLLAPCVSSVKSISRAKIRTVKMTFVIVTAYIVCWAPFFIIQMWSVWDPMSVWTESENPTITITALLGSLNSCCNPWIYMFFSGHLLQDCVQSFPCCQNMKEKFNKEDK

[17] = biological target: T2, truncated V1AR (residues 1-378, T378K) G337A, N-terminal SNAP-tag (human) (UniProt P37288)
T2 sequence: T1 sequence with G337A

[18] = biological target: wild-type human oxytocin receptor, full length, N-terminal SNAP-tag (human) (UniProt P30559)
[19] = biological target: OTR A318G, N-terminal SNAP-tag (human) (UniProt P30559); assay: AlphaScreen or HTRF; whole-cell saturation binding; SNAP-tagged receptor on transfected HEK293T/17 cells labelled with SNAP-Lumi4-Tb; concentration range of HiLyte Fluor 488-Orn8 oxytocin, 1 h at room temperature in 20 mM Hepes pH 7.5, 100 mM KCl, 3 mM MgCl2, 0.05% BSA; nonspecific binding with 1000-fold excess of unlabelled oxytocin; one-site saturation fit
[20] = biological target: OTR-D153Y, N-terminal SNAP-tag (human) (UniProt P30559); assay: as above
[21] = biological target: T1, truncated V1AR (residues 1-378 with C-terminal mutation T378K), N-terminal SNAP-tag (human); assay: as above
[22] = biological target: T2, truncated V1AR (residues 1-378, T378K) G337A, N-terminal SNAP-tag (human); assay: as above
[23] = biological target: wild-type human oxytocin receptor, full length, N-terminal SNAP-tag (human) (UniProt P30559); assay: as above

Chain of oxytocin (P01178 whole entry, looked up): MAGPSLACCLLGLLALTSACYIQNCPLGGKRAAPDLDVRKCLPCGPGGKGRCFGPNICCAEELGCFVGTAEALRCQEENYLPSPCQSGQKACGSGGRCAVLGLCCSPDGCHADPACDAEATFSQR

- OT-induced IP1 accumulation (HTRF IP-One) in transfected HEK293T cells, EC50 [1]: 0.0046 µM
- OT-induced IP1 accumulation (HTRF IP-One) in transfected HEK293T cells, EC50 [2]: 3.48 µM
- OT-induced IP1 accumulation (HTRF IP-One) in transfected HEK293T cells, EC50 [3]: 0.542 µM
- OT-induced IP1 accumulation (HTRF IP-One) in transfected HEK293T cells, EC50 [4]: 0.0061 µM
- OT-induced IP1 accumulation (HTRF IP-One) in transfected HEK293T cells, EC50 [5]: 0.0895 µM
- OT-induced IP1 accumulation (HTRF IP-One) in transfected HEK293T cells, EC50 [6]: 0.0061 µM
- OT-induced IP1 accumulation (HTRF IP-One) in transfected HEK293T cells, EC50 [7]: 0.0219 µM
- OT-induced IP1 accumulation (HTRF IP-One) in transfected HEK293T cells, EC50 [8]: 0.444 µM
- OT-induced IP1 accumulation (HTRF IP-One) in transfected HEK293T cells, EC50 [9]: 0.993 µM
- OT-induced IP1 accumulation (HTRF IP-One) in transfected HEK293T cells, EC50 [10]: 0.0391 µM
- OT-induced IP1 accumulation (HTRF IP-One) in transfected HEK293T cells, EC50 [11]: 0.0513 µM
- OT-induced IP1 accumulation (HTRF IP-One) in transfected HEK293T cells, EC50 [12]: 0.222 µM
- OT-induced IP1 accumulation (HTRF IP-One) in transfected HEK293T cells, EC50 [13]: 1.54 µM
- OT-induced IP1 accumulation (HTRF IP-One) in transfected HEK293T cells, EC50 [14]: 0.156 µM
- OT-induced IP1 accumulation (HTRF IP-One) in transfected HEK293T cells, EC50 [15]: 0.0429 µM
- OT-induced IP1 accumulation (HTRF IP-One) in transfected HEK293T cells, EC50 [16]: 0.158 µM
- OT-induced IP1 accumulation (HTRF IP-One) in transfected HEK293T cells, EC50 [17]: 0.25 µM
- OT-induced IP1 accumulation (HTRF IP-One) in transfected HEK293T cells, EC50 [18]: 0.0084 µM
Substance: oxytocin (from UniProt P01178 20-28) (peptide)

Substance: HiLyte Fluor 488-Orn^8 oxytocin (from UniProt P01178 20-28) (peptide)
- pKd [19]: 9.05
- pKd [20]: 8.19
- pKd [21]: 8.03
- pKd [22]: 7.68
- pKd [23]: 8.85
